Results taken from PMC10681739, “High-throughput data and modeling reveal insights into the mechanisms of cooperative DNA-binding by transcription factor proteins”.

B1: Table S3 B row 2138 (dsDNA)
DNA 1: TGTGAAACCGCAGGGGTTCAGGGAGGCAGTGTAAGC
DNA 2: GCTTACACTGCCTCCCTGAACCCCTGCGGTTTCACA
B2: Table S3 B row 2433 (dsDNA)
DNA 1: GGGTTTTGTGGTTAGCAAGTTCCAGCTCCCGTCGCA
DNA 2: TGCGACGGGAGCTGGAACTTGCTAACCACAAAACCC
B3: Table S3 B row 1695 (dsDNA)
DNA 1: GCACAAAACCGCACAAACAGCCTGAAGCACAGCCCC
DNA 2: GGGGCTGTGCTTCAGGCTGTTTGTGCGGTTTTGTGC
B4: Table S3 B row 1072 (dsDNA)
DNA 1: CTTCTTCTTGCGGTTTCAATCACAGTAAACAGACGT
DNA 2: ACGTCTGTTTACTGTGATTGAAACCGCAAGAAGAAG
B5: Table S3 B row 3420 (dsDNA)
DNA 1: GGTTTGTGGTTTCCCCTTACTGTCTCCACTGCCTTC
DNA 2: GAAGGCAGTGGAGACAGTAAGGGGAAACCACAAACC
B6: Table S3 B row 2012 (dsDNA)
DNA 1: TTTTTGTGTTTTTGTGGTTTCTTCCGATCTTAGTCA
DNA 2: TGACTAAGATCGGAAGAAACCACAAAAACACAAAAA
B7: Table S3 B row 3040 (dsDNA)
DNA 1: GCCTTTTGTGGTTTGTACCACTGCCTGCCTTTTCTG
DNA 2: CAGAAAAGGCAGGCAGTGGTACAAACCACAAAAGGC
B8: Table S3 B row 2269 (dsDNA)
DNA 1: ACTGTTATTGTGGTTTTTGGGGACTGCCTCTTTGTC
DNA 2: GACAAAGAGGCAGTCCCCAAAAACCACAATAACAGT
B9: Table S3 B row 158 (dsDNA)
DNA 1: GTCTCAACCGCAAGGAGGTGTTACGTCCTCTTTTAC
DNA 2: GTAAAAGAGGACGTAACACCTCCTTGCGGTTGAGAC
B10: Table S3 B row 1191 (dsDNA)
DNA 1: CTCTTGCGGTCAGGTCACGCCGCCTGAAGCCGCCCC
DNA 2: GGGGCGGCTTCAGGCGGCGTGACCTGACCGCAAGAG
B11: Table S3 B row 2387 (dsDNA)
DNA 1: CATTTCTGTTGCGGTTGGCAGCGTCTCCATCCACGG
DNA 2: CCGTGGATGGAGACGCTGCCAACCGCAACAGAAATG
B12: Table S3 B row 3965 (dsDNA)
DNA 1: GGAGAAACCGCAACTCGGAACTACGGGAACGGAGGA
DNA 2: TCCTCCGTTCCCGTAGTTCCGAGTTGCGGTTTCTCC
B13: Table S3 B row 3390 (dsDNA)
DNA 1: TTTCATATTTGTGGTTTTGGTGTTGCCTCTTACACA
DNA 2: TGTGTAAGAGGCAACACCAAAACCACAAATATGAAA
B14: Table S3 B row 2108 (dsDNA)
DNA 1: GCTCGTTTGTGGTTACTGACACCCGGCCTTCATTTC
DNA 2: GAAATGAAGGCCGGGTGTCAGTAACCACAAACGAGC
B15: Table S3 B row 3806 (dsDNA)
DNA 1: TCAGTCTTGTGGTTAAGGGAGGCAGGGTACTGTTGG
DNA 2: CCAACAGTACCCTGCCTCCCTTAACCACAAGACTGA
B16: Table S3 B row 2442 (dsDNA)
DNA 1: GTGAAAAAGTCTGTGGTTTTGTTTCTTGAACACCTG
DNA 2: CAGGTGTTCAAGAAACAAAACCACAGACTTTTTCAC
B17: Table S3 B row 278 (dsDNA)
DNA 1: TAAGTGTTGTGGTTTTTTAGTTTACTGTTCAGTTGC
DNA 2: GCAACTGAACAGTAAACTAAAAAACCACAACACTTA
B18: Table S3 B row 741 (dsDNA)
DNA 1: CTTAAAACCACAACACAATAACACCAGAGGACATGA
DNA 2: TCATGTCCTCTGGTGTTATTGTGTTGTGGTTTTAAG
B19: Table S3 B row 1506 (dsDNA)
DNA 1: GTTCCTGGTTTGTGGTTATGATTTGCTGTTTGCCTT
DNA 2: AAGGCAAACAGCAAATCATAACCACAAACCAGGAAC
B20: Table S3 B row 1550 (dsDNA)
DNA 1: TGACCTTTGTGGTTTGGTCAGCAAGTGGGGTACTGG
DNA 2: CCAGTACCCCACTTGCTGACCAAACCACAAAGGTCA
B21: Table S3 B row 3051 (dsDNA)
DNA 1: GGCTTGTGGTTTGGTGATTGTACGTCCTTATTGATA
DNA 2: TATCAATAAGGACGTACAATCACCAAACCACAAGCC
B22: Table S3 B row 2218 (dsDNA)
DNA 1: TCCTTGCGGTTTGCTTTCGCCGTCTCCGAACCGAGG
DNA 2: CCTCGGTTCGGAGACGGCGAAAGCAAACCGCAAGGA
B23: Table S3 B row 1134 (dsDNA)
DNA 1: GTTAAGCTGCGGTCAGACCTAAGGGAGGATCTGGCT
DNA 2: AGCCAGATCCTCCCTTAGGTCTGACCGCAGCTTAAC
B24: Table S3 B row 1277 (dsDNA)
DNA 1: GGGGTGCGGTTTAGGGCGGGTTTTTTGCGCCTTGGA
DNA 2: TCCAAGGCGCAAAAAACCCGCCCTAAACCGCACCCC
B25: Table S3 B row 1768 (dsDNA)
DNA 1: TGGTTGTGGTTTGGAGATTCTGATGTCATTTGCTGT
DNA 2: ACAGCAAATGACATCAGAATCTCCAAACCACAACCA
B26: Table S3 B row 320 (dsDNA)
DNA 1: AGAAACCACAAAACCCCATTTGAAATTCAGCCGTGC
DNA 2: GCACGGCTGAATTTCAAATGGGGTTTTGTGGTTTCT
B27: Table S3 B row 474 (dsDNA)
DNA 1: TCGTATTTGCGGTCAGCCTCTTACGTAATGTGCTTG
DNA 2: CAAGCACATTACGTAAGAGGCTGACCGCAAATACGA
B28: Table S3 B row 71 (dsDNA)
DNA 1: CCTTTGTTGTGGTTTTTGCAGAAAGAGAAGGGTTAG
DNA 2: CTAACCCTTCTCTTTCTGCAAAAACCACAACAAAGG
B29: Table S3 B row 1104 (dsDNA)
DNA 1: TTTCTGTGGTTTGGTTTCTATAGAGACACTTGCTGT
DNA 2: ACAGCAAGTGTCTCTATAGAAACCAAACCACAGAAA
B30: Table S3 B row 226 (dsDNA)
DNA 1: TTTCTTTCTGTGGTTTATCCTTATTTGCTGGCTTCG
DNA 2: CGAAGCCAGCAAATAAGGATAAACCACAGAAAGAAA
B31: Table S3 B row 1255 (dsDNA)
DNA 1: GTCCAACCGCAGCCAGGCAAGCACACCCTGCCCCAC
DNA 2: GTGGGGCAGGGTGTGCTTGCCTGGCTGCGGTTGGAC
B32: Table S3 B row 2601 (dsDNA)
DNA 1: CTGCTTGTGGTTTTGGTCTGCAGCAAGCTGGGCTGC
DNA 2: GCAGCCCAGCTTGCTGCAGACCAAAACCACAAGCAG
B33: Table S3 B row 2332 (dsDNA)
DNA 1: TGTCAAAGTTTGTGGTGAGTGGCTTGCTGGAGACCC
DNA 2: GGGTCTCCAGCAAGCCACTCACCACAAACTTTGACA
B34: Table S3 B row 378 (dsDNA)
DNA 1: GCCTGCGGTTTGGGTGCTGTGACCGTACGGGGGCGG
DNA 2: CCGCCCCCGTACGGTCACAGCACCCAAACCGCAGGC
B35: Table S3 B row 48 (dsDNA)
DNA 1: CCTGCTGCGGTCAGCCCTGTCTCTTTCTGTTTCTGC
DNA 2: GCAGAAACAGAAAGAGACAGGGCTGACCGCAGCAGG
B36: Table S3 B row 1212 (dsDNA)
DNA 1: GCTTTTCTGTGGTTTTTCTCACACGGGAATTGAGAG
DNA 2: CTCTCAATTCCCGTGTGAGAAAAACCACAGAAAAGC
B37: Table S3 B row 2934 (dsDNA)
DNA 1: TTTTTGTGGTTTAGCCCTCAGAGCTCCCTGCCAGAG
DNA 2: CTCTGGCAGGGAGCTCTGAGGGCTAAACCACAAAAA
B38: Table S3 B row 1694 (dsDNA)
DNA 1: CTGCAAACCACAAAACACCTGACTGCTACGTAAGAT
DNA 2: ATCTTACGTAGCAGTCAGGTGTTTTGTGGTTTGCAG
B39: Table S3 B row 1866 (dsDNA)
DNA 1: TCTGCGGTCAGCTGACTGTGCCAGAGTGCCGCGGGG
DNA 2: CCCCGCGGCACTCTGGCACAGTCAGCTGACCGCAGA
B40: Table S3 B row 2418 (dsDNA)
DNA 1: TTCTCTGCACTGCGGTTTACTCAGAAAGAAGACAAC
DNA 2: GTTGTCTTCTTTCTGAGTAAACCGCAGTGCAGAGAA
B41: Table S3 B row 3657 (dsDNA)
DNA 1: CCACCCAAAACCACAACCATTTGCCCCATCACTTTG
DNA 2: CAAAGTGATGGGGCAAATGGTTGTGGTTTTGGGTGG
B42: Table S3 B row 531 (dsDNA)
DNA 1: ATAGCTTGTGGTTTATGGGTCAGCAAGTTGAGGGTG
DNA 2: CACCCTCAACTTGCTGACCCATAAACCACAAGCTAT
B43: Table S3 B row 2123 (dsDNA)
DNA 1: CTCTGAACGTCCTCTCTTTTAACCACAACTTACTAC
DNA 2: GTAGTAAGTTGTGGTTAAAAGAGAGGACGTTCAGAG
B44: Table S3 B row 2604 (dsDNA)
DNA 1: CGGGTTAAACCGCAGCCGCGCCCACACTTTCGGGGT
DNA 2: ACCCCGAAAGTGTGGGCGCGGCTGCGGTTTAACCCG
B45: Table S3 B row 3458 (dsDNA)
DNA 1: CTGATTGTGGTTTTGATTTGCAATTCCCTGATGATT
DNA 2: AATCATCAGGGAATTGCAAATCAAAACCACAATCAG

Each binder was assayed against RUNX1 (Homo sapiens, UniProt Q01196) (assay: gcPBM; 2 nM RUNX1). Details: tags: N-terminal GST (pDEST15), kept (PMC6008103); label: surface-attached array probe.
Chain of RUNX1 (Q01196 whole entry): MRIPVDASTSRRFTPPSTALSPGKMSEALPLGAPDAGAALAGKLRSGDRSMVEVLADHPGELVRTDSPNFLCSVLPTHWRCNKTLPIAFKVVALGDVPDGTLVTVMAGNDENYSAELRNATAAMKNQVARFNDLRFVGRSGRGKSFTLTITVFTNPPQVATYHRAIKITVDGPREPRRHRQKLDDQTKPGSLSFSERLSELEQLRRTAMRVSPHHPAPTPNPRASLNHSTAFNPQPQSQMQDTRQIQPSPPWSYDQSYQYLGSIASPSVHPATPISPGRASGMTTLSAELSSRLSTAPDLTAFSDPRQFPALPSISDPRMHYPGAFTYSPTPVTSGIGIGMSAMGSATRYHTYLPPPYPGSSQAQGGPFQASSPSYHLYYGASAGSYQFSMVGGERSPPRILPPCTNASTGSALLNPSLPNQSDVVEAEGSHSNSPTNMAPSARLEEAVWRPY

In order of falling binding signal:
1. B41  31700 PBM fluorescence, median of replicate spots
2. B10  30900 PBM fluorescence, median of replicate spots
3. B22  30700 PBM fluorescence, median of replicate spots
4. B27  29200 PBM fluorescence, median of replicate spots
5. B5  28800 PBM fluorescence, median of replicate spots
6. B44  28100 PBM fluorescence, median of replicate spots
7. B4  27500 PBM fluorescence, median of replicate spots
8. B12  26700 PBM fluorescence, median of replicate spots
9. B45  25900 PBM fluorescence, median of replicate spots
10. B19  24200 PBM fluorescence, median of replicate spots
11. B37  23200 PBM fluorescence, median of replicate spots
12. B15  20500 PBM fluorescence, median of replicate spots
13. B17  20300 PBM fluorescence, median of replicate spots
14. B2  18900 PBM fluorescence, median of replicate spots
15. B13  18800 PBM fluorescence, median of replicate spots
16. B25  18000 PBM fluorescence, median of replicate spots
17. B23  17500 PBM fluorescence, median of replicate spots
18. B7  17300 PBM fluorescence, median of replicate spots
19. B3  16300 PBM fluorescence, median of replicate spots
20. B35  16100 PBM fluorescence, median of replicate spots
21. B39  16100 PBM fluorescence, median of replicate spots
22. B26  15200 PBM fluorescence, median of replicate spots
23. B32  14600 PBM fluorescence, median of replicate spots
24. B18  14300 PBM fluorescence, median of replicate spots
25. B42  13900 PBM fluorescence, median of replicate spots
26. B33  13400 PBM fluorescence, median of replicate spots
27. B21  13000 PBM fluorescence, median of replicate spots
28. B9  12800 PBM fluorescence, median of replicate spots
29. B8  12500 PBM fluorescence, median of replicate spots
30. B30  12500 PBM fluorescence, median of replicate spots
31. B24  12400 PBM fluorescence, median of replicate spots
32. B11  12200 PBM fluorescence, median of replicate spots
33. B1  11000 PBM fluorescence, median of replicate spots
34. B40  10900 PBM fluorescence, median of replicate spots
35. B43  10800 PBM fluorescence, median of replicate spots
36. B34  10500 PBM fluorescence, median of replicate spots
37. B28  10300 PBM fluorescence, median of replicate spots
38. B6  9430 PBM fluorescence, median of replicate spots
39. B16  9320 PBM fluorescence, median of replicate spots
40. B38  9300 PBM fluorescence, median of replicate spots
41. B20  9070 PBM fluorescence, median of replicate spots
42. B36  8950 PBM fluorescence, median of replicate spots
43. B31  8530 PBM fluorescence, median of replicate spots
44. B14  8520 PBM fluorescence, median of replicate spots
45. B29  8510 PBM fluorescence, median of replicate spots
